Measured values as given in patent US20230279121A1.

Legend:
human EGFR (human) = human EGFR (human) (UniProt P00533); assay: SPR
[1] = molecular target: Rhesus macaque EGFR (Rhesus macaque) (UniProt P55245); assay: SPR
[2] = molecular target: recombinant human EGFR-His (human) (UniProt P00533); assay: SPR, Biacore 8K, 37 C; protein captured on anti-hFc IgG chip, EGFR-His injected; N = 4

Work on PANI-H_S62R-L_F87Y-L_D92R (scFv) yielded a Kd (human EGFR (human)) of 3.38 nM, a koff (human EGFR (human)) of 0.00099 s⁻¹ and a kon (human EGFR (human)) of 293000 M⁻¹ s⁻¹. It also gave a Kd [1] of 5.36 nM, a koff [1] of 0.00112 s⁻¹ and a kon [1] of 209000 M⁻¹ s⁻¹.

B1: EGFR-Protein-4 (bispecific antibody, part only; not given: unrelated Fab, Fc and junctions, not shown: another chain or arm of the molecule; a dimerising Fc or GST)
scFv: DIQMTQSPSSLSASVGDRVTITCQASQDISNYLNWYQQKPGKAPKLLIYDASNLETGVPSRFSGSGSGTDFTFTISSLQPEDIATYYCQHFRHLPLAFGCGTKVEIKGGGGSGGGGSGGGGSGGGGSQVQLQESGPGLVKPSETLSLTCTVSGGSVSSGDYYWTWIRQSPGKCLEWIGHIYYSGNTNYNPSLKSRLTISIDTSKTQFSLKLSSVTAADTAIYYCVRDRVTGAFDIWGQGTMVTVSS
B1 showed a Kd [2] of 2.36 nM, a koff [2] of 0.000745 s⁻¹ and a kon [2] of 316000 M⁻¹ s⁻¹.
